# Results as given in patent US20240261333A1 (published 2024).
# T1: LMNA (human, UniProt P02545 1-646, limits assumed)
# T1 construct: also called NP_733821.1
# T1 sequence (looked up): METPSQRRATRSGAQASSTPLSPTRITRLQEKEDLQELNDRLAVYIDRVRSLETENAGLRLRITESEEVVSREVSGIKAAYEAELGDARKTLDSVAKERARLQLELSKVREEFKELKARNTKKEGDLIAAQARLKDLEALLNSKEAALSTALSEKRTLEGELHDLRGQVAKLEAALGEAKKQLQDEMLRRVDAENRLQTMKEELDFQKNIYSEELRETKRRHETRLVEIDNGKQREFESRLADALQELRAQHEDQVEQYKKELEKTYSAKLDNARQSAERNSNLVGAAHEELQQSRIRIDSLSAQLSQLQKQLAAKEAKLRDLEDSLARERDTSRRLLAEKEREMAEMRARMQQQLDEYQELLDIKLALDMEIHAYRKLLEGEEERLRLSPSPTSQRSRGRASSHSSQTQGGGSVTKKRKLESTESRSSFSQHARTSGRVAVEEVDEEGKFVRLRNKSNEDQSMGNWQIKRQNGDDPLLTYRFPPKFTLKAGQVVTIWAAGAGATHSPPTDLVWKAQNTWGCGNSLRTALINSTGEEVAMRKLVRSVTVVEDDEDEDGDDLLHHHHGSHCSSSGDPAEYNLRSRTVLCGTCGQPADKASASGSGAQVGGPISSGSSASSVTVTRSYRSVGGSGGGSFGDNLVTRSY
# T2: NUFIP2 (human, UniProt Q7Z417 1-695)
# T2 construct: also called NP_065823.1
# T2 sequence (looked up): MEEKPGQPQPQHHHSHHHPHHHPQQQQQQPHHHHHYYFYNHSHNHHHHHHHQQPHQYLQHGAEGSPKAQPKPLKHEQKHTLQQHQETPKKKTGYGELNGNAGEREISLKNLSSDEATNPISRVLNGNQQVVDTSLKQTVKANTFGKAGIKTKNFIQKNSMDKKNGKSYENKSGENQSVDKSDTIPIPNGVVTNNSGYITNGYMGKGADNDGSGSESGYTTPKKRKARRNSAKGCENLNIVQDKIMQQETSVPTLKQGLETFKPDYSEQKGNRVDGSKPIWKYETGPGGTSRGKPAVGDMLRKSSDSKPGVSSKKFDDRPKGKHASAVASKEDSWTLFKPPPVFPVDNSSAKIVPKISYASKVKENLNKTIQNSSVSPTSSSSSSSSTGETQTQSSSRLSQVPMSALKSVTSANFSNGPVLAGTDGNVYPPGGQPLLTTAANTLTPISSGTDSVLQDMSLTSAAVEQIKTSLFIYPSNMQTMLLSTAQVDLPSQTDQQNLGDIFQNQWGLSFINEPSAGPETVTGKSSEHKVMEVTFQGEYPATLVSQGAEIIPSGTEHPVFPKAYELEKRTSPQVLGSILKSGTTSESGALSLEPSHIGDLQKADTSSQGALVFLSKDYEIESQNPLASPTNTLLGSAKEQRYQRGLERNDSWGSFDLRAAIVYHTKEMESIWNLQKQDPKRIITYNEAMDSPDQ
# T3: RBM39 (human, UniProt Q14498-3 2-508, limits assumed)
# T3 construct: also called NP_001310351.1 (+3)
# T3 sequence (looked up): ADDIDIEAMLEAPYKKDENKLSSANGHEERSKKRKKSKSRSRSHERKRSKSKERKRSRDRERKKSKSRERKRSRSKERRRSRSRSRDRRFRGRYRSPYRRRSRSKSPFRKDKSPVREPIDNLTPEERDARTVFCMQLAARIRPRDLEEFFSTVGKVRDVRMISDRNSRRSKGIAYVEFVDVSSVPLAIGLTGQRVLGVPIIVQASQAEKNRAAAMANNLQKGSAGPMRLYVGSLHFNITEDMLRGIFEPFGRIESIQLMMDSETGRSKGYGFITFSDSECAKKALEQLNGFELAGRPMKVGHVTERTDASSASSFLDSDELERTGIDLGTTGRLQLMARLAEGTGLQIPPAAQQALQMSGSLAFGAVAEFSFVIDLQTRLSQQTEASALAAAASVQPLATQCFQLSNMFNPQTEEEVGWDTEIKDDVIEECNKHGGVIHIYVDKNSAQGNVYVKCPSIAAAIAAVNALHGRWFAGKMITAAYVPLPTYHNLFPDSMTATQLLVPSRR
# Experiments:
# Assay in all cases: co-IP, anti-FLAG, lysate of cells with N-FLAG B3GNT2; mass spectrometry
# [1] = molecular target: T4, SPTAN1 (human, UniProt Q13813-2 1-2477, limits assumed)
# T4 construct: also called NP_001123910.1 (+10)
# [2] = molecular target: T1, LMNA
# [3] = molecular target: T5, PARP1 (human, UniProt P09874 2-1014)
# T5 construct: also called NP_001609.2
# [4] = molecular target: T2, NUFIP2
# [5] = molecular target: T3, RBM39
# T5 sequence (P09874 2-1014 limits assumed): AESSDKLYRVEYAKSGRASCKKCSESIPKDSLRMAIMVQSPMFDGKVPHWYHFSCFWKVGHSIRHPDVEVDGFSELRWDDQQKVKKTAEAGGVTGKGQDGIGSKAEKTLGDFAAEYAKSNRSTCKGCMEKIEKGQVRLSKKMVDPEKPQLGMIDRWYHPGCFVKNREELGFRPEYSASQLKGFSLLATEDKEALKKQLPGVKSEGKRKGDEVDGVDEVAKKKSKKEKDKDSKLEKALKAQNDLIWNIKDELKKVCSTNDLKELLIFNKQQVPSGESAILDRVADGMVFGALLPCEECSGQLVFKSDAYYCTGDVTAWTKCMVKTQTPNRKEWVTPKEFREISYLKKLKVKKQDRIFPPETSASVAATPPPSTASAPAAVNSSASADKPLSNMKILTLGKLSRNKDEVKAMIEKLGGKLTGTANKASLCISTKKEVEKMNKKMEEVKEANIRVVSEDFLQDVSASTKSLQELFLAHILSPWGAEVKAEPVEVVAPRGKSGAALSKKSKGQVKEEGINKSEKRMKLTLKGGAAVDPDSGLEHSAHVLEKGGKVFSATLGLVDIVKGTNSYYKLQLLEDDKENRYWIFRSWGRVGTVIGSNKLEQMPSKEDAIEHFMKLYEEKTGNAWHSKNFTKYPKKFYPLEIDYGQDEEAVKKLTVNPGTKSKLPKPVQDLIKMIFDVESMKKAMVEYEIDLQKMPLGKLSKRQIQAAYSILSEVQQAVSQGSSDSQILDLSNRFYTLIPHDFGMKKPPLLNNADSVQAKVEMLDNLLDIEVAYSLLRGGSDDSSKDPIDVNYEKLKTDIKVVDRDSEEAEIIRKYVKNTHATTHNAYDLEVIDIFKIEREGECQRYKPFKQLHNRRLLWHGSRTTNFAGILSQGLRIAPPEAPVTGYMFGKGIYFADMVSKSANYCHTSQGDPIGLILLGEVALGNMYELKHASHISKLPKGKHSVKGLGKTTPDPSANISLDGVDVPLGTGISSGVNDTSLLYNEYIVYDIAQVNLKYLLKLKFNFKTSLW
binder,measurement,setting,value
"N-terminal FLAG tagged B3GNT2 (enzyme, human, UniProt Q9NY97 1-397, looked up, Overexpressed in cells and pulled down from the lysate with mouse anti-FLAG antibody; also called N-FLAG B3GNT2; N-term FLAG; not shown: N-terminal FLAG tag) MSVGRRRIKLLGILMMANVFIYFIMEVSKSSSQEKNGKGEVIIPKEKFWKISTPPEAYWNREQEKLNRQYNPILSMLTNQTGEAGRLSNISHLNYCEPDLRVTSVVTGFNNLPDRFKDFLLYLRCRNYSLLIDQPDKCAKKPFLLLAIKSLTPHFARRQAIRESWGQESNAGNQTVVRVFLLGQTPPEDNHPDLSDMLKFESEKHQDILMWNYRDTFFNLSLKEVLFLRWVSTSCPDTEFVFKGDDDVFVNTHHILNYLNSLSKTKAKDLFIGDVIHNAGPHRDKKLKYYIPEVVYSGLYPPYAGGGGFLYSGHLALRLYHITDQVHLYPIDDVYTGMCLQKLGLVPEKHKGFRTFDIEEKNKNNICSYVDLMLVHSRKPQEMIDIWSQLQSAHLKC",co-IP mass spectrometry count,[1],0
same,co-IP mass spectrometry count,[2],11
same,co-IP mass spectrometry count,[3],0
same,co-IP mass spectrometry count,[4],3
same,co-IP mass spectrometry count,[5],4
